We go through one molecule from PMC4004224 (Journal of the American Chemical Society, 2014).

This assay concerns the target T1, recombinant human Rnase inhibitor (human, UniProt P13489 1-461).
T1 sequence (looked up): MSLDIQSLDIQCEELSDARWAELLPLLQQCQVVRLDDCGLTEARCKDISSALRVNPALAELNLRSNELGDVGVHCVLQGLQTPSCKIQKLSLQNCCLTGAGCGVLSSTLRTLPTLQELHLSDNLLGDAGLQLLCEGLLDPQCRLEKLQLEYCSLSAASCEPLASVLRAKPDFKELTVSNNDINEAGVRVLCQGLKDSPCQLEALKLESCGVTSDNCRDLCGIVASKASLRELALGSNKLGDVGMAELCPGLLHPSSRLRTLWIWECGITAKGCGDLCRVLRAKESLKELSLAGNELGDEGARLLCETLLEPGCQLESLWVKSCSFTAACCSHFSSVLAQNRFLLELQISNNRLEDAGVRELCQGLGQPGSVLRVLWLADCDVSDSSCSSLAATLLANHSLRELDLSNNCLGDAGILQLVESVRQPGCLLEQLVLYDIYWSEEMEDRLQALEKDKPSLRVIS

B1: pyronin-conjugated bovine Rnase A (enzyme, UniProt P61823 27-150, looked up)
chain: KETAAAKFERQHMDSSTSAASSSNYCNQMMKSRNLTKDRCKPVNTFVHESLADVQAVCSQKNVACKNGQTNCYQSYSTMSITDCRETGSSKYPNCAYKTTQANKHIIVACEGNPYVPVHFDASV
modifications: lysines conjugated to the fluorinated pyronin from bromopyronin 5; 0.3-0.6 fluorophores per protein
As to B1, the binding result was “binds”.
